Assay results reported in paper PMC8428690.
Read-outs that look alike come from different tables or passages of the source.

Assays:
[1] = target: H6-spTorA-mCherry (E. coli | not stated); assay: SEC; substrate (~7 μM) mixed with TorD 1:1 or 1:2, 10 min at 37°C in FPLC buffer with 5 mM DTT, then Superdex 75 at 4°C; fractions analysed by anti-6xHis Western blot
[2] = target: TorD-H6 (Escherichia coli TorD, 6xHis tagged) (E. coli) (UniProt P36662); assay: SEC; Ni-NTA purified TorD alone, ~170 μM total load; Superdex 75 10/300 GL, FPLC buffer (5 mM MgCl2, 150 mM NaCl, 25 mM MOPS, 25 mM MES, 25% glycerol, pH 8.0), 5 mM DTT, 4°C; dimer to monomers, KD estimated from the monomer/dimer ratio
[3] = target: spTorA-GFP(Alexa532) (E. coli | not stated); assay: co-sedimentation; competition, apparent KD: spTorA-GFP(Alexa532) 50 nM pre-incubated with various concentrations of TorD (10 min, 37°C), then with Tat++ IMVs (A280 = 5; 10 min, 37°C), pelleted (32,000 g, 4°C, 10 min); IMV-bound precursor by in-gel fluorescence; high-BSA translocation buffer
[4] = target: H6-spTorA-mCherry (E. coli | not stated); assay: SEC; fractions 19-21 of the purified 1:1 TorD/spTorA-mCherry complex pooled, centrifuged and at once re-run on the column (~2.3-3.5 μM total TorD); KD estimated from the ratio of the peaks
[5] = target: spTorA-GFP(Alexa532) (E. coli | not stated); assay: co-sedimentation; competition, apparent KD: spTorA-GFP(Alexa532) 50 nM pre-incubated with various concentrations of TorD (10 min, 37°C), then with Tat++ IMVs (A280 = 5; 10 min, 37°C), pelleted (32,000 g, 4°C, 10 min); IMV-bound precursor by in-gel fluorescence; high-BSA translocation buffer; remark: listed apart in the source

Chain of spTorA-GFP(Alexa532) (E. coli | not stated) (P33225 1-39, tags left off): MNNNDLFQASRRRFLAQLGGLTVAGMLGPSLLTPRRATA
Chain of H6-spTorA-mCherry (E. coli | not stated) (P33225 1-39 limits assumed): as the sequence (P33225 1-39, tags left off) above

B1: TorD-H6 (Escherichia coli TorD, 6xHis tagged) (natural protein)
chain: MTTLTAQQIACVYAWLAQLFSRELDDEQLTQIASAQMAEWFSLLKSEPPLTAAVNELENRIATLTVRDDARLELAADFCGLFLMTDKQAALPYASAYKQDEQEIKRLLVEAGMETSGNFNEPADHLAIYLELLSHLHFSLGEGTVPARRIDSLRQKTLTALWQWLPEFVARCRQYDSFGFYAALSQLLLVLVECDHQNR
With B1 the stoichiometry N [1] was 1, the Kd [2] was > 50 µM and the Kd [3] was 800 nM. For the same binder, the Kd [4] was 1500 nM, the Kd [5] was 1300 nM and the percent inhibition of spTorA-GFP binding to Tat++ IMVs at ~1 μM TorD [5] was 50%.
